How the values were obtained:
R1003W GFP-βIISp (human) = R1003W GFP-βIISp (human) (UniProt Q01082); test: pull-down
F-actin = F-actin (UniProt P68135); test: co-sedimentation

Chain of R1003W GFP-βIISp (human) (Q01082 whole entry R1003W): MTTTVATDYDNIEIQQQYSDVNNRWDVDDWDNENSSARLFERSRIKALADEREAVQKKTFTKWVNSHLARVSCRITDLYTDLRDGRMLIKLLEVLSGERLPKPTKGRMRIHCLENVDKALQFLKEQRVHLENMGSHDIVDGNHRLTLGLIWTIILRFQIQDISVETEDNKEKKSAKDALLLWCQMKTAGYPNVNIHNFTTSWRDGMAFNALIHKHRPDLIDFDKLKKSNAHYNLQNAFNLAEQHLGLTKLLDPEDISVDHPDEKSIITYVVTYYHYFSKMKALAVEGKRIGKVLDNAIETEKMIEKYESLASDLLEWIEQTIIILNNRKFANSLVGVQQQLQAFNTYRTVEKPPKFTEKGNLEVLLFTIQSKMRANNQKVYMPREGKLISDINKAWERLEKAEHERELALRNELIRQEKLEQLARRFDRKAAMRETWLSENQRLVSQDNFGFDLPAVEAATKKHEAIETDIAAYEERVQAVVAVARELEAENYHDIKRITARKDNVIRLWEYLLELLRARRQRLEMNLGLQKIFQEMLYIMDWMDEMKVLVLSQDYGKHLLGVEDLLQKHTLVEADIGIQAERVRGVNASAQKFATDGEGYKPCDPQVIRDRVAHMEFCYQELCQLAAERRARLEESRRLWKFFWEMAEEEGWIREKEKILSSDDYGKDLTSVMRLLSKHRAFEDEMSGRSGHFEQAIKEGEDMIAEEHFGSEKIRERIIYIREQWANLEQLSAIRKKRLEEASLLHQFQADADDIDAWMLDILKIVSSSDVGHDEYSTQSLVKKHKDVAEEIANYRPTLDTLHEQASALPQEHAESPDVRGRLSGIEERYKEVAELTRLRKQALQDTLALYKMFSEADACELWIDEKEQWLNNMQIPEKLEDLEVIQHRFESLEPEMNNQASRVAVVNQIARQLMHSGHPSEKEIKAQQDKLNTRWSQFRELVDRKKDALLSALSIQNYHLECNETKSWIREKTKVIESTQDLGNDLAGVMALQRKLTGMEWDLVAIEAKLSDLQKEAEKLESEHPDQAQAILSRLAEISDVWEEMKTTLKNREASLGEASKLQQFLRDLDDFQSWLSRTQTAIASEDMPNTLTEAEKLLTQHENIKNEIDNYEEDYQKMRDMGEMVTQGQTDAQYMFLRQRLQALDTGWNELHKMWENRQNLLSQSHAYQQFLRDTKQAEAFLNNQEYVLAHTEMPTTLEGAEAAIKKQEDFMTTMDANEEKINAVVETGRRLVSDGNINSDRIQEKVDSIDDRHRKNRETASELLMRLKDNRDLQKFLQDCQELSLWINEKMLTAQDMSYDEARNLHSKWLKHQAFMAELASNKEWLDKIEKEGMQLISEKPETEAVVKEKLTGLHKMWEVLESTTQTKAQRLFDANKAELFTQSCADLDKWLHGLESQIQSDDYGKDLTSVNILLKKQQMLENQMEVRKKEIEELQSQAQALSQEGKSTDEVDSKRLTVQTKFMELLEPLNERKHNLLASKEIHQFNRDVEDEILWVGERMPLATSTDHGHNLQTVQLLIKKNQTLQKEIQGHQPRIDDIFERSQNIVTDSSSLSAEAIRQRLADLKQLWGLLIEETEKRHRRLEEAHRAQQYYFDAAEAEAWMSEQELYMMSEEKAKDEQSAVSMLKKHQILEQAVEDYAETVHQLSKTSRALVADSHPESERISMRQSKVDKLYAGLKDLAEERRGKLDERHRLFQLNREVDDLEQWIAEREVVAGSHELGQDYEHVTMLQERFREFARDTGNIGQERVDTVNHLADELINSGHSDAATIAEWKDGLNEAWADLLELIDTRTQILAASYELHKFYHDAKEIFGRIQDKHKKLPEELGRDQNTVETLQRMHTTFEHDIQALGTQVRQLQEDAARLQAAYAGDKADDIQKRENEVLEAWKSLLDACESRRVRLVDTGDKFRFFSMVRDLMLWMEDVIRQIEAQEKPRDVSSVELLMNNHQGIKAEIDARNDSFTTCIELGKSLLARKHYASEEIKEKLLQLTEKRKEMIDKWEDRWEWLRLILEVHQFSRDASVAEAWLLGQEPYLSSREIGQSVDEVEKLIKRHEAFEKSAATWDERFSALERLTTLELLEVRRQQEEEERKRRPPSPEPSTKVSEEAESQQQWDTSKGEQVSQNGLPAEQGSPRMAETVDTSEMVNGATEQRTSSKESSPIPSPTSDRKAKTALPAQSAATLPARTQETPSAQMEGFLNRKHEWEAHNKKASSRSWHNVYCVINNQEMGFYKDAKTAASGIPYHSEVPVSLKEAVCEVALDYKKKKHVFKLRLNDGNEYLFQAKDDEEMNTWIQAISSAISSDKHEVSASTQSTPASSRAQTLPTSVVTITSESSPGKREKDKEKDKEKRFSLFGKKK

percent less association with F-actin than WT (F-actin) [%]	Substance	other results
–	mCherry-tagged αII-spectrin, Q13813-2 1-2477	percent reduction of association against WT GFP-βIISp (R1003W GFP-βIISp (human)): 40%
–	purified full-length βII-spectrin p.A850G (from UniProt Q01082-1 1-2364) (natural protein)	percent higher F-actin binding than WT (F-actin): 50%
40	purified full-length βII-spectrin p.T59I (from UniProt Q01082-1 1-2364) (natural protein)	–
70	purified full-length βII-spectrin p.I159_Q160del (from UniProt Q01082-1 1-2364) (natural protein)	–

From doi:10.1101/2020.08.31.20184481
